Measured values taken from publication PMC3836737, “Brd4 Is Displaced from HPV Replication Factories as They Expand and Amplify Viral DNA” (PLoS Pathogens, 2013).
Changes are numbered by the printed parent chain.

B1: HPV16 E2 I73L (natural protein)
chain: METLCQRLNVCQDKILTHYENDSTDLRDHIDYWKHMRLECAIYYKAREMGFKHINHQVVPTLAVSKNKALQALELQLTLETIYNSQYSNEKWTLQDVSLEVYLTAPTGCIKKHGYTVEVQFDGDICNTMHYTNWTHIYICEEASVTVVEGQVDYYGLYYVHEGIRTYFVQFKDDAEKYSKNKVWEVHAGGQVILCPTSVFSSNEVSSPEIIRQHLANHPAATHTKAVALGTEETQTTIQRPRSEPDTGNPCHTTKLLHRDSVDSAPILTAFNSSHKGRINCNSNTTPIVHLKGDANTLKCLRYRFKKHCTLYTAVSSTWHWTGHNVKHKSAIVTLTYDSEWQRDQFLSQVKIPKTITVSTGFMSI
modifications: 35S-labeled
notes: source: in vitro translated (TNT Coupled Reticulocyte Lysate System, Promega), 35S-labeled
B2: HPV16 E2 R37K (natural protein)
chain: B1 chain with R37K, L73I
modifications: 35S-labeled
notes: as for B1

Target: T1, Purified FLAG-tagged Brd4 (UniProt O60885 1-1362)
T1 construct: source: purified, described previously [13]
Assay: pull-down
Details: one partner purified

Binder	percent of wildtype E2 binding
B1	< 20 % of wildtype E2 binding
B2	< 20 % of wildtype E2 binding
